# Laboratory results: article PMC9687537
# Target: DYNC2H1 [human (endogenous in RPE1)]
# Assay: GFP-trap purification, TMT-labelling and mass spectrometry
# Details: RPE1 WDR34 KO cell lines expressing GFP proteins, serum-starved for 24 h; read off a plot
row,Substance,ratio to parent
1,GFP–WDR34-WT mutant G393S [human] / DYNC2H1 [human (endogenous in RPE1)] chain 1 G393S,0.3
2,GFP–WDR34-WT mutant R447Q [human] / DYNC2H1 [human (endogenous in RPE1)] chain 1 R447Q,0.62
3,GFP–WDR34-WT mutant T354M [human] / DYNC2H1 [human (endogenous in RPE1)] chain 1 T354M,0.22
4,GFP–WDR34-WT mutant A341V [human] / DYNC2H1 [human (endogenous in RPE1)] chain 1 A341V,2
5,GFP–WDR34-WT mutant P390L [human] / DYNC2H1 [human (endogenous in RPE1)] chain 1 P390L,1.6

# The remaining lines, values ahead:
row,ratio to parent,Substance
1,2.7,GFP–WDR34-WT mutant R206C [human] / DYNC2H1 [human (endogenous in RPE1)] chain 1 R206C
2,0.93,GFP–WDR34-WT mutant R447W [human] / DYNC2H1 [human (endogenous in RPE1)] chain 1 R447W
3,0.55,GFP–WDR34-WT mutant C148F [human] / DYNC2H1 [human (endogenous in RPE1)] chain 1 C148F
4,0.93,GFP–WDR34-WT mutant A22V [human] / DYNC2H1 [human (endogenous in RPE1)] chain 1 A22V
5,0.45,GFP–WDR34-WT mutant S410I [human] / DYNC2H1 [human (endogenous in RPE1)] chain 1 S410I
6,2,GFP–WDR34-WT mutant R182W [human] / DYNC2H1 [human (endogenous in RPE1)] chain 1 R182W
7,2,GFP–WDR34-WT mutant K436R [human] / DYNC2H1 [human (endogenous in RPE1)] chain 1 K436R
